{"source": "the DeepSol protein solubility set"}
{"test": "soluble on expression in E. coli; label from the status in PepcDB or PDB records"}
{"sequence": "MRLHIGGREKHPDWKIFDALERPEVNFVGNAADLSQFADDSIEAIYASHVLEHFHHSLGNELVSVLLEWRRVLLPNGKLYISVPDLQTLSWLFLSPMAGFQHRLQIMRMMFGGQVDQYDVHKVGFDCEILFTYLQAAKFSDYERVENFELFQDCSNLVFLGYPISLNVVAVKLEHHHHHH", "soluble on expression in E. coli": "not soluble"}
{"sequence": "MRLIAAGEAQNAQQADEDVVQRNIQANRGTNIVRFTAMNDVAGFKQNSARGDQNEDRADRQMQGRQLQEDISNHTNQHHHNTRHQHTAKERHIFAGGQHIRRAAEEHQRRSAQCHSDYVTHSSRQVGVQNWSEDISQKTGKGECGDNPGRLIRRFVGQEHQTIHTHQRQNQTRRWQHQHRTGSCGNRRKGQRQAQQKIGITQHLMGAKQRCTVM", "soluble on expression in E. coli": "soluble"}
{"sequence": "MRLIMKPEHSTRGRVIFVGAGPGNPDLLTVRAREVLGSTANAVVDSTVGVGIRAVIAEHLEVPQAKLDAAEAEYERMCAAAKRRKPPRPDAPTAAEITEVSADASVDEVMAVLLPLLDEGDVIRLVQGNPLADSRALDEITAVTQVGADFQIVPGMSLPAAVPAFAGITLGDSYTKTTVSEDTNWDQLATAPLPLILQASKDDLLTIAMELKDRKLPASTPVTVTMNGTTRLQRSFDVTLKTMKSLVKQELDGTLVVTVGVSDRSTFSWWESRALFGWRVLVPRAKDQAGPMSSRIAAYGAIAQEVPTISVEPPRNPAQLERAIKGIVEGRYQWVVFTSVNAVKAVREKIVSFGLDSRAFAGVHIAAVGAKTAAAIREFGITPELIPPRKEHNAAGMVSVFPNYVEGLDPVGRVLLPRADIATDVLVDGLVNLGWEVDDVVAYRTVRAAPPSAEVRDMIKSGDFDAVCFTSASTVRNLVGIAGKPHARTIIACIGPMTAAEAEKQGLRVDVIPEVANVAALVDALAEHVEKLRAAGELPPPRKKRRARRKSKEGAV", "soluble on expression in E. coli": "not soluble"}
{"sequence": "MRLPCEVVFARYKANAGVNPKPTKSQKGFVILQKLRQTPPQYQITVAVAGDKTGNKFELNKPPIILDKFIAQGKTTITFQTTPAVMVCISKANPEALAQLIEAIRKIVKGENVDIEKVKVKSSDFKPTTITVNNQATYKKQMQSCSEFLKTLKIEPIDLRRPDKAWRFCHNLTRLTLNGNPIGAHNRDLDVFSKLKQLQSLEMRSCSLELIPVPAMCTMFRELPTSISLLDFGDNHLSIFPPIFHLKQLKIINAAHNAIKYLPSRIGVLQNLNTIDVSNNLMTALPYVFSKIPSIEHVGINANDQMVRLEEEIGPIFIRRLLTKVDNIEYTHEGGVDKLGTIAANAIHREECSKSMKFGRQFLPLSLRFDMDDLMFEKPGISSLELCTGCVRLRHIRYIRPLIIQSRQIANSVDVIGRFVTFDRLLCIDCYRRTTSTNNGEPPFQCDYFQFAV", "soluble on expression in E. coli": "not soluble"}
{"sequence": "MRMGRYFGTSGIREVVNEKLTPELALKVGLALGTYLQEGKVVIGCDTRTSSVMLKNAVISGLLATGIDVIDIGLAPTPLTGFAIRLYNAEAGVTITASHNPPQYNGIKVWDRDGMAYTPDKEHELEKIIESGNFRRVPWNEVGTLKTANPRKEYIEAILREINLKGSYTVVIDAGNGAGSIVSPYLHRELGNRVITLNSDPSGFFVRELEPNKESLSMLEKTVKVLNADIGIAHDGDADRVGVVDENGEFVEYEVMLSLIAGYMLKKYGKGKIVTTVDAGFALDDYIRELGGEVVRTRVGDVAVAEELVKHGGVFGGEPSGTWIMPQWNLTPDGIFASALVLEMIDRLGPIGELAKDVPKYVTLRKKIPCSNELKNKVMNKIADLIPREFSYERIITIDGIRIENDDWWILFRPSGTEPIMRITLEAHTEEMAERLMKKAENLVKSVIKDLSS", "soluble on expression in E. coli": "soluble"}
{"sequence": "MRMILMFDMPTETAEERKAYRKFRKFLLSEGFIMHQFSVYSKLLLNNTANNAMIGRLKVNNPKKGNITLLTVTEKQFARMVYLHGERNTSVANSDSRLVFLGDSYDQDLEHHHHHH", "soluble on expression in E. coli": "not soluble"}
{"sequence": "MRMNSQWGFKMKILIMGFEYLPVKVGGLAEALTSIAEALASLGHEVLVFTPSHGRFQGSEIGIIKAFGGKVAIKVHLEENGNLRIYRIGGGLLDHQDVYGPGWEGLIRKTVIFGKASVLLLNELLKSEDLPDVLHFHDWHTVFAGALIKKYFRIPAVFTIHRLNKSKIPAFYFHEAGLPELAPYPDLDPEHTGGYIADIVTTVSRGYLLDEWDFFRNFNGKVTYVFNGIDCSFWNENYLKGSRKERRSSILAKFGMSDGITFMFIGRFDRRQKGVDTLLRAIELLSERPEFKEMRFIIIGMGDPELENWARELEKRYDNVRVLTEMLSREFVRELYGSVDFVIIPSYFEPFGLVSLEAMCLGAIPIASSVGGLRDVIVSIDEDHVDGTGLLVKPGDPWDLANAILRMHSIAMDNEFVEKLRDNCKKRAKSFSWENSAKRYLRAYKGNIDRIFDFAMLEHHHHHH", "soluble on expression in E. coli": "not soluble"}
